Where two headings read alike, the source gives them in different places. One block for each molecule: values may come before it.
Tests used:
[1] = target: Recombinant canine CD40 extracellular domain with human IgG1 Fc domain tag (canine; human) (UniProt Q7YRL5); assay: SPR (Biacore T200), single-cycle kinetics, canine CD40-Fc immobilised, antibody 2-32 nM as analyte, bivalent analyte model, first site, average n=5
[2] = target: T1, Recombinant canine CD40/TNFRSF5 protein (his tag) (canine, UniProt Q7YRL5 21-194); assay: ELISA, absorbance on StP1a over absorbance on Irrelevant His Tag (RgN3a)
T1 construct: Sino Biological 70105-D08H, expressed in a human cell line from Met1-Ala194; signal peptide Met1-Pro20 predicted cleaved; also called antigen; StP1a (canine CD40)
T1 sequence: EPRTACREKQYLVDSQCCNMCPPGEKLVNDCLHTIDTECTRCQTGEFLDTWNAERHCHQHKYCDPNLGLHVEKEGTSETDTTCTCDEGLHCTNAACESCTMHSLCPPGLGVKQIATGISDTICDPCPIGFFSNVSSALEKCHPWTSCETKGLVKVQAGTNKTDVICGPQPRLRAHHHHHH

[3] = target: T2, Recombinant canine CD40 extracellular domain with human IgG1 Fc domain tag (canine; human, UniProt Q7YRL5 21-194); assay: SPR (Biacore T200), single-cycle kinetics, canine CD40-Fc immobilised, antibody 2-32 nM as analyte, bivalent analyte model, first site, average n=5
T2 construct: extracellular domain; Amine-coupled to a CM5 chip; also called caCD40-Fc; canine CD40-Fc; not shown: human IgG1 Fc domain tag
T2 sequence (looked up): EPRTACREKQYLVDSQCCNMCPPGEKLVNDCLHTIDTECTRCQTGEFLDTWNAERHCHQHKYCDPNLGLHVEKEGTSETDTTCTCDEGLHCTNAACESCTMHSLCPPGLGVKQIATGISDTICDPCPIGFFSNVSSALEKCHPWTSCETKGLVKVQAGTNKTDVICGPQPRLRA
Procedure: (§1) Recombinant canine CD40 extracellular domain with human IgG1 Fc domain tag (canine CD40-Fc) was immobilised to the surface of a Series S Sensor Chip CM5 using an Amine Coupling Kit. The reference surface for analysis was prepared by immobilising human IgG1 isotype control antibody to the Series S Sensor Chip CM5 using the same method.
(§2) Kinetics/affinity analysis was carried out using the Biacore method for single-cycle kinetics. Running buffer was HBS-EP+ buffer, pH 7.4. Injection parameters were sample contact time: 180 seconds, dissociation: 600 seconds, flow rate: 30 μl/min. The concentrations of chimeric anti-CD40 antibodies used for kinetics analysis were 2 nM, 4 nM, 8 nM, 16 nM and 32 nM. Regeneration was with 50 mM NaOH for 30 seconds at 30 μl/min. Experimental data was fitted to a bivalent analyte binding model.

[4] = target: T2, Recombinant canine CD40 extracellular …; assay: as above; remark: listed apart in the source
Procedure: as §1
as §2, with “purified anti-dog CD40” for “chimeric anti-CD40”

[5] = target: T1, Recombinant canine CD40/TNFRSF5 protein …; assay: ELISA, absorbance on StP1a over absorbance on Irrelevant His Tag (RgN3a); remark: listed apart in the source
[6] = target: T2, Recombinant canine CD40 extracellular …; assay: SPR (Biacore T200), single-cycle kinetics, canine CD40-Fc immobilised, antibody 2-32 nM as analyte, bivalent analyte model, first site, average n=6
Procedure: as §1, §2

B2: SVX-2001A (antibody)
heavy: QVQLQQSGPELVQPGASVKISCRASGYSFTSYYIHWVKQRPGQGLEWIGWIFPGSGNTKYNEKFRGKATLTADTSSSTAYTQVSSLTSEDSAVYFCARKSPYGNYAMDYWGQGTSVTVSSASTTAPSVFPLAPSCGSTSGSTVALACLVSGYFPEPVTVSWNSGSLTSGVHTFPSVLQSSGLHSLSSMVTVPSSRWPSETFTCNVVHPASNTKVDKPVFNECRCTDTPPCPVPEPLGGPSVLIFPPKPKDILRITRTPEVTCVVLDLGREDPEVQISWFVDGKEVHTAKTQSREQQFNGTYRVVSVLPIEHQDWLTGKEFKCRVNHIDLPSPIERTISKARGRAHKPSVYVLPPSPKELSSSDTVSITCLIKDFYPPDIDVEWQSNGQQEPERKHRMTPPQLDEDGSYFLYSKLSVDKSRWQQGDPFTCAVMHETLQNHYTDLSLSHSPGK
light: DILLTQSPAILSVSPGERVSFSCRASQSIGTSIHWYQQRTNGSPRLLIKSASESISGIPSRFSGSGSGTDFTLSINSVESEDIADYYCQQSNSWPYTFGGGTKLEIKRNDAQPAVYLFQPSPDQLHTGSASVVCLLNSFYPKDINVKWKVDGVIQDTGIQESVTEQDKDSTYSLSSTLTMSSTEYLSHELYSCEITHKSLPSTLIKSFQRSECQRVD
notes: also called chimeric dog IgGA, k antibody derived from StP1.RD1.G9.H5
Kd [3]: 1.85 nM
koff [3]: 0.000659 s⁻¹
kon [3]: 370000 M⁻¹ s⁻¹

B3: SVX-2001C (antibody)
heavy: QVQLQQSGPELVQPGASVKISCRASGYSFTSYYIHWVKQRPGQGLEWIGWIFPGSGNTKYNEKFRGKATLTADTSSSTAYTQVSSLTSEDSAVYFCARKSPYGNYAMDYWGQGTSVTVSSASTTAPSVFPLAPSCGSQSGSTVALACLVSGYIPEPVTVSWNSVSLTSGVHTFPSVLQSSGLYSLSSMVTVPSSRWPSETFTCNVAHPATNTKVDKPVAKECECKCNCNNCPCPGCGLLGGPSVFIFPPKPKDILVTARTPTVTCVVVDLDPENPEVQISWFVDSKQVQTANTQPREEQSNGTYRVVSVLPIGHQDWLSGKQFKCKVNNKALPSPIEEIISKTPGQAHQPNVYVLPPSRDEMSKNTVTLTCLVKDFFPPEIDVEWQSNGQQEPESKYRMTPPQLDEDGSYFLYSKLSVDKSRWQRGDTFICAVMHEALHNHYTQISLSHSPGK
light: B2 light
notes: also called chimeric dog IgGC, k antibody derived from StP1.RD1.G9.H5
Kd [3]: 3.36 nM
koff [3]: 0.00172 s⁻¹
kon [3]: 519000 M⁻¹ s⁻¹

B5: SVX-2001B (antibody)
heavy: QVQLQQSGPELVQPGASVKISCRASGYSFTSYYIHWVKQRPGQGLEWIGWIFPGSGNTKYNEKFRGKATLTADTSSSTAYTQVSSLTSEDSAVYFCARKSPYGNYAMDYWGQGTSVTVSSASTTAPSVFPLAPSCGSTSGSTVALACLVSGYFPEPVTVSWNSGSLTSGVHTFPSVLQSSGLYSLSSMVTVPSSRWPSETFTCNVAHPASKTKVDKPVPKRENGRVPRPPDCPKCPAPEMLGGPSVFIFPPKPKDTLLIARTPEVTCVVVDLDPEDPEVQISWFVDGKQMQTAKTQPREEQFNGTYRVVSVLPIGHQDWLKGKQFTCKVNNKALPSPIERTISKARGQAHQPSVYVLPPSREELSKNTVSLTCLIKDFFPPDIDVEWQSNGQQEPESKYRTTPPQLDEDGSYFLYSKLSVDKSRWQRGDTFICAVMHEALHNHYTQESLSHSPGK
light: B2 light
notes: also called chimeric dog IgGB, k antibody derived from StP1.RD1.G9.H5
Kd [3]: 3.36 nM
koff [3]: 0.00155 s⁻¹
kon [3]: 461000 M⁻¹ s⁻¹

Second part, the molecule after the results:

Kd [1]: 257 nM
koff [1]: 0.0143 s⁻¹
kon [1]: 58000 M⁻¹ s⁻¹
Molecule: anti-human CD40 antibody 21.4.1

positive:negative ratio [2]: 10.8
B1: StP1.RE2.D7b.B5 (antibody, V domains shown)
VH: QVQLQQSGPELVKPGASVKISCKASGYSFTSYYIHWVKQSPGQGLEWIGWIFPGSGNTKYNEKFKGKATLTADTSSSTAYMQLSSLTSEDSAVYFCARRGTTRDALDYWGQGTSVTVSS
VL: DILLTQSPAILSVSPGERVSFSCRASQSIGTSIHWFQQRTNGSPRVLIKYASQSISGIPSRFSGSGSGTDFTLSINSVESEDIADYYCQQSYTWPFTFGSGTKLAIKR

Kd [3]: 2.6 nM
koff [3]: 0.000932 s⁻¹
kon [3]: 359000 M⁻¹ s⁻¹
B4: SVX-2001D (antibody)
heavy: QVQLQQSGPELVQPGASVKISCRASGYSFTSYYIHWVKQRPGQGLEWIGWIFPGSGNTKYNEKFRGKATLTADTSSSTAYTQVSSLTSEDSAVYFCARKSPYGNYAMDYWGQGTSVTVSSASTTAPSVFPLAPSCGSTSGSTVALACLVSGYFPEPVTVSWNSGSLTSGVHTFPSVLQSSGLYSLSSTVTVPSSRWPSETFTCNVVHPASNTKVDKPVPKESTCKCISPCPVPESLGGPSVFIFPPKPKDILRITRTPEITCVVLDLGREDPEVQISWFVDGKEVHTAKTQPREQQFNSTYRVVSVLPIEHQDWLTGKEFKCRVNHIGLPSPIERTISKARGQAHQPSVYVLPPSPKELSSSDTVTLTCLIKDFFPPEIDVEWQSNGQPEPESKYHTTAPQLDEDGSYFLYSKLSVDKSRWQQGDTFTCAVMHEALQNHYTDLSLSHSPGK
light: B2 light
notes: also called chimeric dog IgGD, k antibody derived from StP1.RD1.G9.H5

Kd [4]: 5.24 nM
koff [4]: 0.00157 s⁻¹
kon [4]: 312000 M⁻¹ s⁻¹
positive:negative ratio [5]: 12.4
Kd [6]: 2.85 nM
koff [6]: 0.00106 s⁻¹
kon [6]: 372000 M⁻¹ s⁻¹
B6: StP1.RD1.G9.H5 (antibody, V domains shown)
VH: QVQLQQSGPELVQPGASVKISCRASGYSFTSYYIHWVKQRPGQGLEWIGWIFPGSGNTKYNEKFRGKATLTADTSSSTAYTQVSSLTSEDSAVYFCARKSPYGNYAMDYWGQGTSVTVSS
VL: DILLTQSPAILSVSPGERVSFSCRASQSIGTSIHWYQQRTNGSPRLLIKSASESISGIPSRFSGSGSGTDFTLSINSVESEDIADYYCQQSNSWPYTFGGGTKLEIKRADAAPTVS
notes: also called purified monoclonal antibody from hybridoma cell-line StP1.RD1.G9.H5

From patent publication US20260146099A1 (SELVAX, published 2026)
